This is an account of results in publication PMC9428257 (2022).

B1: yeast-displayed wild-type sBCMA (human BCMA extracellular domain, Met1-Ala54) [human] / human APRIL (a proliferation-inducing ligand) [human] (parent complex)
chain 1: MLQMAGQCSQNEYFDSLLHACIPCQLRCSSNTPPLTCQRYCNASVTNSVKGTNA
chain 2: AVLTQKQKKQHSVLHLVPINATSKDDSDVTEVMWQPALRRGRGLQAQGYGVRIQDAGVYLLYSQVLFQDVTFTMGQVVSREGQGRQETLFRCIRSMPSHPDRAYNSCYSAGVFHLHQGDILSVIIPRARAKLNLSPHGTFLGFVKL

The variants in the test derive from B1. In words: flow cytometry binding curve of yeast-displayed sBCMA.
For chain 1 S16G, chain 1 H19Y, chain 1 T36A, the screen value was 325.
